Measured values: publication PMC9396398, “Crystal structure of Ankyrin-G in complex with a fragment of Neurofascin reveals binding mechanisms required for integrity of the axon initial segment” (The Journal of Biological Chemistry, 2022)
Numbering of substitutions follows the chain as printed.

Key:
Experiment in all cases: ITC
[1] = target: T1, AnkG R1-24 H384A (Rattus norvegicus)
T1 chain: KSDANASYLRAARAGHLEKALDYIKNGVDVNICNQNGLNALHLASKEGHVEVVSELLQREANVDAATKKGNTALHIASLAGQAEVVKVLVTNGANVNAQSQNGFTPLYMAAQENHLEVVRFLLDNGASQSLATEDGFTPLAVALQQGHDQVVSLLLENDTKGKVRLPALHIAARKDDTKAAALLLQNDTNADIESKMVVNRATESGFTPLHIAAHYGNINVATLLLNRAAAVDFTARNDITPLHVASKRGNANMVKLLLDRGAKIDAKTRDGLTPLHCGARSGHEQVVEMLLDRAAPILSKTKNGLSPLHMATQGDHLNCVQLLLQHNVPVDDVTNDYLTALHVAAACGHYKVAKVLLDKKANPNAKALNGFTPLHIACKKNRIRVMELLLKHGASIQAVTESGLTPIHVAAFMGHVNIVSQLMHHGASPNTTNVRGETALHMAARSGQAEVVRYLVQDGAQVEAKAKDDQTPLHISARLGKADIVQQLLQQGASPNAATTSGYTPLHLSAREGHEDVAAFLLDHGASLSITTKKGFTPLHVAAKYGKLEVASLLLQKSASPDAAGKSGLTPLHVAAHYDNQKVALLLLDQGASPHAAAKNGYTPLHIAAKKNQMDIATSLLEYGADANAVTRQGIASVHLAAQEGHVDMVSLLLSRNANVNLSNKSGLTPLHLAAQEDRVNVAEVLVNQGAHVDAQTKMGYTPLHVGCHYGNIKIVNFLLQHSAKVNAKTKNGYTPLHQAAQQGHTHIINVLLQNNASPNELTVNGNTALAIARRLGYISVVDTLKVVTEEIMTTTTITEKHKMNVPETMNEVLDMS

[2] = target: T2, AnkG R1-24 T339A, N341A (Rattus norvegicus)
T2 chain: T1 chain with T302A, N304A, A347H

[3] = target: T3, AnkG R1-24 M348Q (Rattus norvegicus)
T3 chain: T1 chain with M311Q, A347H

Kd [1]: 1700 nM
Kd [2]: 2500 nM
Kd [3]: 1800 nM
B1: Nfasc ankyrin-binding domain (ABD, residues 1187-1214) (domain or fragment, UniProt P97685 1187-1214, looked up)
chain: SDDSLVDYGEGGEGQFNEDGSFIGQYTV
notes: also called Nfasc ABD; source: E. coli BL21 (DE3), purified (Ni-NTA, size-exclusion chromatography)
